In the DeepSol protein solubility set:

assay: soluble on expression in E. coli; label from the status in PepcDB or PDB records

| Sequence | soluble on expression in E. coli |
| --- | --- |
| MGSDKIHHHHHHMLNDRARILLKTLVERYISEGEPVGSRTLSKHAGLDLSPASIRNIMSDLEEMGFVASPHTSAGRVPTPRGYRFFVDTLLTVRPLDQVSVNHLENSLAASDPQRLMTAASTLLSDLSQFAGLVMTPRRNPAFRQIEFLTLSDKRVLLIIVTMEGEVENRVIVTEQSYSAAALTEAANYFNQNFAGHSFDHVRSKLRDELGRMRDDITRLMAAAVDAGTQALDASQDNVVVSGSRKLLDVEELSSNMRSLRRLFDAFEKKTGLLQLLDQSRSAAGVQIFIGGESELLPLDECSLVTAPYSVDGVVVGTLGVVGPTRMAYERVVPIVDVTAKILSSALSQHK | not soluble |
| MGSDKIHHHHHHMLNVSIVIPAWNEQERINDCLLNATRQTVMPHEVIVVDNRSTDSTVAVVEQFMKDHPEAPVKLLHQDDEQGLIPTRDYGLNHATGDILGRFDADCMIRPDWVEVVSGIFTEDPDAMGATGPVMYYDLPSRHFGLRGDNSTRKRIYRADDGQPLLFGSNMALRATAWREIADEVCQDKADVMHEDIDISLHLLGKDLKTVYCPRMIAGISARRMDTSPASFLNYMRRFKNTFNAHPQHYRKHKPEILITALYPVMHLLYPVWQKVLNTADINPAEAAWINEQMELAEQEGHELYDDTPTDEEWSEKHEE | not soluble |
| MGSDKIHHHHHHMLSALWVSKTGLSAQDMNLTTISNNLANVSTTGFKRDRAEFQDLLYQIRRQPGGQSTQDSELPSGLQLGTGVRVVGTQKIFTPGSLQTTEQPLDMAVNGRGFFQVLLPDGTVSYTRDGSFHLNSDGQIVTSNGFALEPAIVVPNETQTFTVGQDGTVSVTTTGNAQPQVIGNIQTADFINPAGLQAIGNNLFLETGSSGAPQVGTPGLNGLGTVAQNTLENSNVNVVEELVNMITTQRAYEMNSKVISTADQMLSFVTQNL | not soluble |
| MGSDKIHHHHHHMLSHEDNETLVRVGPGTPTGQFMRLYWLPFLPSSDLTVDGQPQRVRLLGEDLIAFRDSEGRVGLVDHVCPHRGAPLVFGRNENCGLRCVYHGWQFGVDGQVIDTPAEPAESRLKDKVRIRSYPCRERNGIVWAYMGEADANALPPLPNLEWNMVPLENVHFSFRVQECNWLQAVEGEIDSAHAPILHGRIDSQGAINEWTAKRDLRPVFECQRREFGISIASRRVLDDSHHYWRVNQFLFPFYTLVPPQSKYPELSGHAWVPVDDENTLCLMFSYTPAAPLYEKTRKLFEDGHAGRETGHASAHAFAPRPVTQPYAKYWTRFNLESAFQFDYDAQTKTWFSGLPGLWVQDAACQSGVAPIYDRRKENLGISDTGVAMTRRLLLENVRKLASERVSPVRVDDPDLWMVRAVSLTLPAGAPWQSDGAEHMRARLGADFGYTP | not soluble |
| MGSDKIHHHHHHMLSKMEINKLAMKESMTLLACPICGGEFSFSEPNSFICKNHHGFDIAKPGYLHLLKQVHKTKYDQALFESRKKVIASGFFEKLIERVTEIIAETKKEEVVIYDAGSGEGSHLARVVKNLQEKGRHVQAIGLDIAKEGVKQAARDYPGIVWTVADLANCPTQTETADVILNILSPSNYEEFKRLLKTDGFLLKVVPEANYLRELREFIYVDEKSSYSNESVTSRLAEKLTVEYVERVTYKAPIANELFADFLEMTPLGWHIDKDKKSELLINPPKELTVDLKIIIANRAHLL | not soluble |
| MGSDKIHHHHHHMLSRTADNLYWMTRYVERAENMARILDVSYRMSQLPRNGTDAAVEWEPALIISGQKPDFETRFEEITAGNVIAYMALDPENPSSIVSTLHAARENARAERFVLPQEMFEGLNATWLELQSLSYARLVDWGFREFFEWVKERSHQFLGTTIGTMLQTDGFHFTRLGTFIERADNTARLLDVKYHVLMPDENRLDEAVDYYQWGAVLRAMSALKAYRMVYRDTIKPRQVIDLLTLKREFPRSLHLCYENLHDLLEHLAPGAECTRLTGEMHAKLRYGRIQDITRRGLHRFLTDFITHNAAVSAEIGRTFHLVADIGVQTPVKEAKEAKRADDGGEAEEAGSVQQQRQ | not soluble |
| MGSDKIHHHHHHMLSSAEKVKGQGVASAYRELVNLLEERYKNEIDMKINSFEKSDITHYHTVDFRFFLSTFFKKKRGVRVGYVHFLPETMEGSLKLPWIARVVFYKYLIGFYKRMDEIVVVNPSFIPKLTAYNIPAEKIHYIPNFVSKKSFFPISKGEKELARAKYEIPADKFTVIGIGQVQHRKGVLDFIEVAKQLPDVQFVWAGGFSFGKITSGYEELKKIYDNPPSNVKFIGIVDRSEMNSCINMADVFFMPSYNELFPMAILEAMSCDVPILLRNLDLYEEILDGYYVKEVDNPGFIRAIERLENDTNYYNEMLQASKRGAAYYSEDRLAEIWLDFYQGLLTKE | not soluble |
| MGSDKIHHHHHHMLSVEKLACTHGDSHYLFDEVTFSLNPGERILISGYSGCGKSTLALLLSGLKESGKGQVLLNGSLIEPSDVGFLFQNPDLQFCMDTVAHELYFILENLQIEPEQMQDRSEFVLAQVGLKGFQNRLIYTLSQGEKQRLALATIFLKSPKLIILDEAFANLDQESASQLLQLVLNYQANNQSMLIVIDHLITYYQDIMDHYFWLEKRLTRVNFDYMLNRLNVFELEKKSHNTGDKLLSIKDFQVKLSKNKFISYLDFDLASGERLCLDGPSGVGKSSLFMGLLGLYRTKGKKQFTHRKQIPISFLFQNPLDQFIFSTVYDEIFQVCKDSNKARDILETINLWDKKQFSPFQLSQGQQRRLAIGSILASDSKLLLLDEPTYGQDAYHANMITTLLLSYCHKNHCGVIFTSHDPHLKECFATRFLEVSSCSI | not soluble |
| MGSDKIHHHHHHMLTTLAIGNYRSINHLVLPLSQLNLVTGANGSGKSNLYKALRLLAETAQGGVVEALAREGGLDSTWWAGPETSARMRRGEVPIQGQHPSEVRRLRLGFATEDLGFAITLGLPIPLPYPSAFMLDPEIKCEAIWGAGAYRPSSLLVERKNALVRAREGNRWAVLDQHADSGESFFNIVGRPRQAPEIGDLRAFINSWRFYDHFRIDRDAPCRQPQLGTRSPVLHHDGRNLASALQTIIEIGDVEDLEEALNDAFPGSRLEINAPPGGLFSVRLHQHGLLRPLEGAELSDGTLRYLLLMAALLTPRPPSLMVLNEPETSLHADLLPALARLIIRASRRSQVWVVSHSAPLINALAACDGCNVLELEKIQGQTQLRGVGLLDEPLWRWAD | not soluble |
| MGSDKIHHHHHHMLVYIGNGHYCYSNSTAMFLSSIGENVSPQLVEILTGVGLGAMIEYEKNLYFSMRDPDDGINYALNILGFTAEEHQQASDLDDPFPLLKQQIKQNPVILGPLDMGELTYHPNHKNLNGSDHYVLGYQMDNENIYVQDPAGFPFVPLSLDQFKKAWMAERIPYRKGINKYWSTAKKVVTLDNNEIYERAIDYFKRTYRKFEKVDIGLIGREAICFYADQLLNAPITADTIRHTTFFLFQLSARRANDYAMYFKDRHSHLSVLKTEQAKVFGICHSMSVNKDWKGISEKLMKLADLEDNFRLELLKVGY | not soluble |
| MGSDKIHHHHHHMLWRLKGVPFVGFDVARVRGLYTSLGDGWTYLNSHQIPQVPERVASGVAAAFRTHAQISEVTSQPIAVDQLEAAREAVASLAGVDPDCVVLGPTRQFLAHTLARGLGGFVRRKAGVVLSRADADWLTAPFRSLDGVFSWAEPDLGTGMLPDWQYEKLVDGSTRLVVLSAAHPLLGTVAPVGKIVDKVRARSRAWVLVDATTYAAYRPLRLDEWEADIVMLDLGELGGPQISALIFRDTSMFPRLDRTVPLELPASSLPHGLLGGVPNLVRHLGNLDENAPSVVEAMGEMAKFHKGLFEHLVESLEGLHAVHIVGISGDAAGQDAAFLDRVPRLTFTMEGVPADMVYRRLVDNRLITTVSPADPLLEAMGVTEAGGSITIGLSPFSTYYEVDQLTRVLASLA | not soluble |
| MGSDKIHHHHHHMLYNTDFLSRLTQGVKYLSSAWGLSSEAKLTLLTISENATFRIADENSGRNLIVRVHRPDYHTEAEILSELAWIDALRQDGVVVTPRPISANDGSLLQIFSDGETMRHAVAFEYMAGKEPDAESDLVHWYRTLGEINAKLHAHSRRWTRPENFIRKTWNFNRILGNGAYWGDWRDALGLKPDGKSVLERTHALLETQTSAYGYGEERFGLVHCDMRAANLLVDGDRLGVIDFDDCGLSWFAYDFAAAISFMEHEPFIPDLMAAWLEGYRRVAPLDAQHEAALPMFIMLRRMQLTAWIASHAETPTAQSMGTAYTDGTVALAECYLAEHR | not soluble |
| MGSDKIHHHHHHMMDFYIKQIIIHQFSPNDTELVLSDTPLTLTPRIDDYFRKKLSKVFSDEAKRGYFGEDNVFMSHLQDDLYVSSCQIAQLWKEEFVISEDQKTNDLVFIQFDKDGMEHFAFLRISLKEQFAHVSENQEQPITITQNNLPSAAQTPDEALVVNKSSKQYYLIEKRIKHNGSFANYFSENLLQVQPEQSVKKSIKMVEQTAQKIAENFNKDDFSFQSKMKSAIYKNLEEEQELSPEKLADQLFDDNLTARLTFVDELKDAIPGPVQVSDIDHSRQIKKLENQKLSLSNGIELIVPNNVYQDAESVEFIQNPDGTYSILIKNIQDIQNK | not soluble |
| MGSDKIHHHHHHMMDWLYRYPPLYPGILLKRYKRFFADVQLTSGEIVTAHCPNTGPMTGVSTPQSAVQLSKSDNLNRKLAYTLELIQVHDNEPTWVGINTFLPNRVVKLALAKYLFPELGEYSQIKGEVVYGLDKKSRVDFFLTGSDEERPIYLEVKNTTLSEGRLALFPDTETTRGQKHLRELMALLPLTRAVMLYFINRGDCTEFSPGDRTDPVYGKLLRDAIALGLEVLPCRFDISPEGIRYLGLAKLKI | not soluble |
| MGSDKIHHHHHHMMFLPEQISKLNELETLVFDFIIKSPEEVQQMTIRDLASQAHVSTSTIVRLCTKLGFEGWSDLKFYLKNQLKEKTPEEQHYDNMLEFNMFLRRMNTDNYQAKLNNAAQMIAKADYTVFLGLGTSGSLSEYATKYFVNTGLRSFVISDPFQAVQVQGMGNVVAVIMSVSGETEQVVNKELEFKAGGAKIISITNNEDCTVAKLADYQLSYNLVNEWSKQYPLGNLTTQLPVLAILEILAHKSIDYHLKK | not soluble |
| MGSDKIHHHHHHMMGLKAHAMVLEKFNQPLVYKEFEISDIPRGSILVEILSAGVCGSDVHMFRGEDPRVPLPIILGHEGAGRVVEVNGEKRDLNGELLKPGDLIVWNRGITCGECYWCKVSKEPYLCPNRKVYGINRGCSEYPHLRGCYSSHIVLDPETDVLKVSEKDDLDVLAMAMCSGATAYHAFDEYPESFAGKTVVIQGAGPLGLFGVVIARSLGAENVIVIAGSPNRLKLAEEIGADLTLNRRETSVEERRKAIMDITHGRGADFILEATGDSRALLEGSELLRRGGFYSVAGVAVPQDPVPFKVYEWLVLKNATFKGIWVSDTSHFVKTVSITSRNYQLLSKLITHRLPLKEANKALELMESREALKVILYPEG | soluble |
| MGSDKIHHHHHHMMILIQSRGKMKCKELSEELEVSERQIKSYKMYLEQAGIFINSTPGIYGGYEIDKCNSISLIKLLDSEVSILDMINSQLEYNNDIYKNEFNNIVEKIKAVLNTGEKSDTYMDYFTVQAQRNCDYESEKNKCNEIIRAYTTKHKFWIEYYSLNSGNSERIVHPYGLFNYKSDTYMVAFCEKRFKFIDFKLCRIKDYKVLEEKYNVDKSFSWDEYSKNSIGIYKGEEINVVIKISHPFSTIIKEKVWVNNQQIIEYDDKSIMFKAKMRGYEEIKSWILSMGAYVEVVEPDRLRNDILSEIEKMKKIY | not soluble |
| MGSDKIHHHHHHMMKKTHYNILMVNLPFSGHTNPTLGLAQILVQLGHNVTYINAPDWQSKIERTGAHFVPYDHYPDSLSERQKKVKSWSAAYQTVLRMGKDYDCLIYEMLFFPGKALADRLNIPAYRLFSTFSLNEKILTEFGKTGGFYLTSIFRFTFLRHLLSRKLQRTFQLAYDDLAKEISLNTPELNFTYTVREFQIDADTFDENHYQYVGPSINRPVEPPFDFTPFKNPIIYISLGTLLNRSVSFFKKCIKAFENEPYSIIISLGNRIKKEQLGTMPANVHLYSFVPQLQILERASLFLTHGGMNSVNEAIYYGCPMLVIPVGNDQPRVAQQVADLHLGKCLKCHNLNPQEIKQAAHTILKDSSYKNTIWHFQKIAQTAGGNTLIAQTIIKDLQTKP | not soluble |
